The text below walks through data of publication PMC6391106.

The experiment deals with WT murine C3b (mouse) (UniProt P01027). Briefly: SPR; BIAcore S200; murine C3b (WT or Asn1115) amine coupled to a CM5 chip (930 ± 10 RU); analytes in 2-fold dilution series in HBST (10 mM HEPES, 150 mM NaCl, 0.005% Tween-20, pH 7.4), 30 μl/min for 200 s; steady-state model. For orientation: In SPR one partner is held on a chip, and binding of the other changes the refractive index at the surface.

Sequence of full-length mouse serum-derived FH (P06909 19-1234): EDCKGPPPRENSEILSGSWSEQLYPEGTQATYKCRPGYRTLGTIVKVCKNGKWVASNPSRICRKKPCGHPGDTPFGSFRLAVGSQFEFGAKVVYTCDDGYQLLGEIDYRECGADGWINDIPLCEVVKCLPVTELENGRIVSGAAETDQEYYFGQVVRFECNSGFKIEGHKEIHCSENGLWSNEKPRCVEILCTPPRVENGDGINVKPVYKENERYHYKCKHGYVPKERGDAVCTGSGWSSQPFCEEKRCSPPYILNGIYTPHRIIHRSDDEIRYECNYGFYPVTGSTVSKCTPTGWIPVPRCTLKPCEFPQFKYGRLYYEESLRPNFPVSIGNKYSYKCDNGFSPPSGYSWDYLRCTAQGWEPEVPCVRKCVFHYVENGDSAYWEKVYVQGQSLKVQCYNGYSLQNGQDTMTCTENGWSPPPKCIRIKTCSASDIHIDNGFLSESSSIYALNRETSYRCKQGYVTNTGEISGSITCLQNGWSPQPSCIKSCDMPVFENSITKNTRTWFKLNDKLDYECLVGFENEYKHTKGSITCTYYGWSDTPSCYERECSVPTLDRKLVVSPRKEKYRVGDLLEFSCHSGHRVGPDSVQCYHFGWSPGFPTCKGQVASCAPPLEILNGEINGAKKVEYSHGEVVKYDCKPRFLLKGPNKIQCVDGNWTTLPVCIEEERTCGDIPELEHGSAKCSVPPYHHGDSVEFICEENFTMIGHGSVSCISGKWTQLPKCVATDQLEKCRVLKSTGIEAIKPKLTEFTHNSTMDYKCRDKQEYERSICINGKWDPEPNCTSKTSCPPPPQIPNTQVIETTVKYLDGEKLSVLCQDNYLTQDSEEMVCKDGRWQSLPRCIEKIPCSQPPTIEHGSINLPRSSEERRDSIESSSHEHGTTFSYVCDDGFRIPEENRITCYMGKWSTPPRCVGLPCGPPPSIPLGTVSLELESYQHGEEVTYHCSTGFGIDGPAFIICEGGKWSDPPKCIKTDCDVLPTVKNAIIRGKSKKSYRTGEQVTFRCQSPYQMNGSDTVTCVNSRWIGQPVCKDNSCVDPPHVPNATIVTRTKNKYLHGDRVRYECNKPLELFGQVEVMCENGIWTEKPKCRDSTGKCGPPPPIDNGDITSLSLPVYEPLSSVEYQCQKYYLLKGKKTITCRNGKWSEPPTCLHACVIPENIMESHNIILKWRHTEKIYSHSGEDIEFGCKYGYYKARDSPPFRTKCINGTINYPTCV

Turning to “recombinant human FH SCRs 19–20 (domain or fragment)”, the Kd (in general, the constant that tells how readily two partners part at equilibrium) came out at 9.4 µM.
As for “full-length mouse serum-derived FH (from UniProt P06909 19-1234) (natural protein)”, the figure is 1.4 µM; as for “recombinant murine Crry SCRs 1–5 (domain or fragment)”, 3.2 µM.
With “recombinant murine FH SCRs 1–5 (domain or fragment)” the figure was 2.9 µM.
